Assay [1] deals with T1, Neuropilin 1 (NRP1), R&D 3870-N1-025 (UniProt O14786-2 22-644, biotinylated at a 1:2 molar ratio).
T1 construct: Biotinylated and immobilised on streptavidin biosensor tips; also called Neurophilin 1
T1 sequence (looked up): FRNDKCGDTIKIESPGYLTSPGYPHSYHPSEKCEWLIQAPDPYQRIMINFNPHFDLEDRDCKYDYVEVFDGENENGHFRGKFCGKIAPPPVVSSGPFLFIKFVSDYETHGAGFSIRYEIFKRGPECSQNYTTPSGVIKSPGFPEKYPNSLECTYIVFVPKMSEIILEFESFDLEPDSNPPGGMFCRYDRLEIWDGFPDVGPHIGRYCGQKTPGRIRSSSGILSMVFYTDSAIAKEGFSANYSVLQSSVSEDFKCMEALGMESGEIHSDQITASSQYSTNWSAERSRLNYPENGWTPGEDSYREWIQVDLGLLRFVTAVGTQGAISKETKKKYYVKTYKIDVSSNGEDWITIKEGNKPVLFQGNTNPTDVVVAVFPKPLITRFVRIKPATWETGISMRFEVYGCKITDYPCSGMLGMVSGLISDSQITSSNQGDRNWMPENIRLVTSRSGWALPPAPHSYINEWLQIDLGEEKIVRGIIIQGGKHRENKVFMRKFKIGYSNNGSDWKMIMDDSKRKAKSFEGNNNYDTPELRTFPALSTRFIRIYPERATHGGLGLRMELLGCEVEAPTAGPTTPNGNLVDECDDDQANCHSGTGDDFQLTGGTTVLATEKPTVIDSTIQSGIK
The assay can be described thus: BLI, NRP1 on biosensor. The protocol: (§1) Bio-layer interferometry (BLI) was used to assess NRP1-protein kinetics at 30° C. and 1000 rpm agitation using previously published methods. 1 mg/mL NRP1 (R&D 3870-N1-025) was biotinylated at a 1:2 molar ratio, desalted, and immobilized on the SA biosensor tip (Pall ForteBio) surface. This was followed by 1) 180 seconds baseline buffer diluent, 2) loading of the ligand (NRP1), 3) 180 seconds baseline buffer diluent, 4) 240 seconds association (analyte), and 5) 300 seconds disassociation in assay buffer. Assay buffer: SD Buffer (pH7.4 PBS, 0.05% tween20, 0.01% BSA).
(§2) The experimental data were fit with the 1:1 binding model and analyzed with global fitting using Octet Data Analysis software to calculate KD.
In general terms: In BLI a coated tip is dipped into the sample, and binding shifts an interference pattern.

The target in assay [2] is T1, Neuropilin 1 (NRP1), R&D 3870-N1-025. The assay can be described thus: BLI (Octet), biotinylated NRP1 on SA biosensor, 1:1 global fit. The protocol: as §1, §2
For assay [3], the target named is VLDLr (8444-VL, R&D) (UniProt P98155 28-797, limits assumed). The assay can be described thus: ELISA on coated receptor. The protocol: (§3) Enzyme-linked immunosorbent assay (ELISA) was used to quantify changes in binding of RELN variants (media-derived full-length or CTR-RELN) to either VLDLr or ApoEr2 following an optimized version of a previously published protocol (6). Briefly, ELISA strips (DY008, R&D Systems) were coated with one ng/μL (100 μL/well) of VLDLr (8444-VL, R&D) or ApoEr2 (TP320903, OnGene) receptors diluted in 25 mM Tris HCl, 140 mM NaCl, […], two mM CaCl₂), pH 7.4 (TBS-C buffer). After 18 h at four ° C. incubation, plates were blocked one h with three % BSA (22070008-6, Bioworld), 0.05% Tween-20 (Sigma Aldrich) TBS-C buffer. We assessed binding via incubation with 100 μL/well of serial dilutions of recombinant RELN protein (Ser1221-Gln2666, 8546-MR-050, R&D) or RELN variants in TBS-C buffer for one hour at room temperature. For detection, we used goat anti-mouse RELN primary antibody (LS-C793521-100, LS-Bio, 1:2,000, 100 μL/well) as primary antibody for one h at R.T. and (1:10,000; 100 μL/well, donkey anti-goat IgG H&L, HRP, ab6885, Abcam) as secondary antibody for 30 min. at R.T. Between each of the previous steps, plates were washed four times with TBS-C buffer (200 μL/well). Plates were washed three times prior to initiating the colorimetric reaction (DY008, R&D Systems). Stop solution (50 μL/well, DY008, R&D Systems) was added upon five min. incubation and the absorbance of the samples was measured at 450 nm using the Synergy 2 microplate reader (BioTek Instruments). Processing and analysis of the data was done using Gen5 1.11 software and GraphPad Prism, respectively.

Assay [4] addresses T2, ApoEr2 (TP320903, OnGene) (UniProt Q14114 33-963, limits assumed).
T2 sequence (looked up): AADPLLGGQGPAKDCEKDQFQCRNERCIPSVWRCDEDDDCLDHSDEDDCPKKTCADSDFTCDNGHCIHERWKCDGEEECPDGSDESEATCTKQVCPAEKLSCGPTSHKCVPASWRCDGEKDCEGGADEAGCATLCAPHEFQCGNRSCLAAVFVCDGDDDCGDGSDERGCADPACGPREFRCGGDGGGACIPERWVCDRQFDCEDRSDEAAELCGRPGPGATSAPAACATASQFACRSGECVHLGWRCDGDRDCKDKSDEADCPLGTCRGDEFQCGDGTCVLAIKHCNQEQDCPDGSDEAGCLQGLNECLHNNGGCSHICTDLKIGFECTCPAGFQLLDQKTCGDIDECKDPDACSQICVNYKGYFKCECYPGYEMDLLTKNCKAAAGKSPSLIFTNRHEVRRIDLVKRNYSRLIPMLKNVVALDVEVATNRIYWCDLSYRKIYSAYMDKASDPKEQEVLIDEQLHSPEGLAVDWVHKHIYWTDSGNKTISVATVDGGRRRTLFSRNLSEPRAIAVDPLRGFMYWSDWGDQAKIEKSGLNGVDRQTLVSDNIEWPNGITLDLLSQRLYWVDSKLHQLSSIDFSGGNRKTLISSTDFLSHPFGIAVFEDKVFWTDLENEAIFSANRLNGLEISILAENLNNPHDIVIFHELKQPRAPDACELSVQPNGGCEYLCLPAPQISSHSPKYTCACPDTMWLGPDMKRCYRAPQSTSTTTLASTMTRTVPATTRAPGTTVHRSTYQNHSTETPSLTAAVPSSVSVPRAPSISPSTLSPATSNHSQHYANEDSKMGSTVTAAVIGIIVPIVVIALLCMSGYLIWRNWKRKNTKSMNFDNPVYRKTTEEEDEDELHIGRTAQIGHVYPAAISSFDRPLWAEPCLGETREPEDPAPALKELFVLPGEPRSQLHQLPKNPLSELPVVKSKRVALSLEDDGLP
The assay can be described thus: ELISA on coated receptor. The protocol: as §3
In general terms: In an ELISA, binding on a coated surface is turned into a signal by an enzyme label.

Assay [5] concerns the target Amyloid beta (Abeta42; beta-Amyloid (1-42)) (UniProt P05067 672-713). The assay can be described thus: cell-based or functional assay.

Positions count from the first letter of the chain named. Names may count otherwise.

By Kd is commonly meant the free concentration of one partner at which half of the binding sites on the other are occupied at equilibrium, for simple one-to-one binding. One may read the koff as the rate constant with which the complex falls apart. Broadly, the kon is the second-order rate constant of association.

Sequence of Amyloid beta (Abeta42; beta-Amyloid (1-42)) (P05067 672-713 limits assumed): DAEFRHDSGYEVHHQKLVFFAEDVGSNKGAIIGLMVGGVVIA

B1: Fc-fusion CTR-RELN WT (184I pfcn-huIgG2-C-termH3447WT) (Fc fusion)
chain: APLERKSSVECPPCPAPPVAGPSVFLFPPKPKDTLMISRTPEVTCVVVDVSHEDPEVQFNWYVDGVEVHNAKTKPREEQFNSTFRVVSVLTVVHQDWLNGKEYKCKVSNKGLPAPIEKTISKTKGQPREPQVYTLPPSREEMTKNQVSLTCLVKGFYPSDIAVEWESNGQPENNYKTTPPMLDSDGSFFLYSKLTVDKSRWQQGNVFSCSVMHEALHNHYTQKSLSLSPGARTSTRKQNYMMNFSRQHGLRHFYNRRRR
notes: also called Fc-WT
Consider B1, for which the “fold less affinity than VEGF” value in assay [1] amounted to 100 fold. Also, in assay [2], the Kd was 610 nM, the koff amounted to 0.00573 s⁻¹ and the kon is 9400 M⁻¹ s⁻¹.

B2: Fc-fusion CTR-RELN H3447R (184J pfcn-huIgG2-C-termH3447R) (Fc fusion)
chain: B1 chain with H252R
notes: also called Fc-H3447R
For B2, in assay [1], the “fold affinity against wild-type CTR-RELN” value was determined as 10 fold. Besides, in assay [2], the Kd is 79.3 nM, the koff came out at 0.00102 s⁻¹ and the kon was 12900 M⁻¹ s⁻¹.

B3: C-terminal region of RELN (CTR-RELN) WT recombinant peptide, long (peptide)
peptide: RKQNYMMNFSRQHGLRHFYNRRRRSLRRYP
notes: also called WT long; C-terminal RELN WT uncleaved
As for B3, the binding result in assay [3] and in assay [4] was “no binding” throughout.

B4: C-terminal region of RELN (CTR-RELN) H3447R recombinant peptide, long (peptide)
peptide: B3 peptide with H17R
notes: also called H3447R long; C-terminal RELN H3447R uncleaved
With B4, the binding result in assay [3] and in assay [4] was “no binding” each time.

As to RKQNYMMNFSRQHGLRDFYNRRRR [Reelin CTR peptide H3447D short], the “Thioflavin T fluorescence assay of Abeta aggregation, fold aggregation against H3447K short” value in assay [5] was ~3 fold.

Values taken from patent publication US20260139017A1 (GENERAL HOSPITAL, published 2026).
